Measured values reported in article doi:10.1101/2025.11.18.688960.

Experiments:
Test in all cases: fluorescence anisotropy
[1] = system: Protamine 1 EE (P1 S43ET45E) (mouse)
[2] = system: Protamine 1 WT (P1) (mouse)
[3] = system: Protamine 1 AA (P1 S43AT45A) (mouse)

With 99 bp fluorescent dsDNA the Kd [1] was 1100 nM, the Kd [2] was 430 nM and the Kd [3] was 610 nM.
